For 45 variants, abundance fitness results are on record in the Human Domainome abundance scans (Beltran et al. 2025).

± gives the uncertainty stated by the source.

The chains are these.
B1: CD2-associated protein, residues 1 to 59; numbered along this chain, Q9Y5K6 (parent)
chain: MVDYIVEYDYDAVHDDELTIRVGEIIRNVKKLQEEGWLEGELNGRRGMFPDNFVKEIKR

This data set covers variants of B1. Briefly: abundance fitness (aPCA) (normalised: wild type 0, dead -1); higher = more abundant; growth selection in yeast, the domain comes from the species named. The settings on record: Homo sapiens.
With MVDYIVEYDYDAVHDDELTIRVGEIIRNVKKLQEEGWLEGELNGRRGMFPDNWVKEIKR [F53W], the abundance fitness was -0.026 ± 0.35.

Turning to MVDYIVEYDYDAVHDDELTIRVGEIIRNVKKLQEEGWLEGELNGRRGMFPDNCVKEIKR [F53C], the abundance fitness came out at 0.122 ± 0.083.

Take MVDYIVEYDYDAVHDDELTIRVGEIIRNVKKLQEEGWLEGELNGRRGMFPDNLVKEIKR [F53L]: the abundance fitness came to 0.056 ± 0.086.

Regarding MVDYIVEYDYDAVHDDELTIRVGEIIRNVKKLQEEGWLEGELNGRRGMFPDNPVKEIKR [F53P], the abundance fitness is -0.249 ± 0.11.

Take MVNYIVEYDYDAVHDDELTIRVGEIIRNVKKLQEEGWLEGELNGRRGMFPDNFVKEIKR [D3N]: the abundance fitness came out at 0.012 ± 0.18.

Regarding MVDYIVEYDYDAVHDDELTIRVGEIIRNVKKLQEEGWLEGELNGRRGMFPDNFVREIKR [K55R], the abundance fitness came to 0.009 ± 0.072.

With MVDYIVEYDYDAVHDDELTIRVGEIIRNVKKLQEEGWLEGELNGRRGMFPDNFVWEIKR [K55W], the abundance fitness is -0.771 ± 0.32.

With MVDYIVEYDYDAVHDDELTIRVGEIIRNVKKLQEEGWLEGELNGRRGMFPDNFAKEIKR [V54A], the abundance fitness was -0.258 ± 0.21.

MVDYIVEYDYDAVHDDELTIRVGEIIRNVKKLQEEGWLEGELNGRRGMFPDNFTKEIKR [V54T]: the abundance fitness is -0.209 ± 0.3.

With MVDYIVEYDYDAVHDDELTIRVGEIIRNVKKLQEEGWLEGELNGRRGMFPDNFHKEIKR [V54H], the abundance fitness was -0.484 ± 0.43.

MVDYIVEYDYDAVHDDELTNRVGEIIRNVKKLQEEGWLEGELNGRRGMFPDNFVKEIKR [I20N]: the abundance fitness is -0.792 ± 0.24.

On to MVDYIVEYDYDAVHDDELTDRVGEIIRNVKKLQEEGWLEGELNGRRGMFPDNFVKEIKR [I20D], for which the abundance fitness was -0.933 ± 0.34.

For MVDYIVEYDYDAVHDDELTIRVGEIIRNVKKLQEEGWLEGELNGRRGMFPDNFVKEIGR [K58G], the abundance fitness was -0.008 ± 0.29.

Take MVDYIVEYDYDAVHDDELTIRVGEIIRNVKKLQEEGWLEGELNGRRGMFPDNFVKEIMR [K58M]: the abundance fitness is -0.138 ± 0.25.

Take MVDYIVEYDYDAEHDDELTIRVGEIIRNVKKLQEEGWLEGELNGRRGMFPDNFVKEIKR [V13E]: the abundance fitness is -0.058 ± 0.18.

For MVDYIVEYDYDAVNDDELTIRVGEIIRNVKKLQEEGWLEGELNGRRGMFPDNFVKEIKR [H14N], the abundance fitness was found to be 0.09 ± 0.15.

Consider MVDYIVEYDYDAVHDDELTIRVGEIIRNVKKLQEEGWLEGELNGRRGMKPDNFVKEIKR [F49K], for which the abundance fitness is -0.826 ± 0.43.

For MVDYIVEMDYDAVHDDELTIRVGEIIRNVKKLQEEGWLEGELNGRRGMFPDNFVKEIKR [Y8M], the abundance fitness is -0.261 ± 0.12.

Turning to MVDYIVEYDYDAVHDDELTIRVGEIIRNVKKLQEEGWLEGELNGRRGMFPDNFVKLIKR [E56L], the abundance fitness is -0.18 ± 0.1.

MVDYIVEYDYDAVHDDELTIRVGEIIRNVKKLQEEGWLEGELNGRRGMFPDNFVKCIKR [E56C]: the abundance fitness is -0.044 ± 0.4.

With MVDYIVEYDYDAVHDDELTIRVGEIIRNVKKLQEEGWLDGELNGRRGMFPDNFVKEIKR [E39D], the abundance fitness is -0.541 ± 0.16.

Consider MVDYIVEYDYDAVHDDELTIRVGEIIRNVKKLQEEGWLVGELNGRRGMFPDNFVKEIKR [E39V], for which the abundance fitness is -0.201 ± 0.11.

On to MVDYIVEYDYDAVHDDELTIRVGEIIRNVKKLQEEGWLRGELNGRRGMFPDNFVKEIKR [E39R], for which the abundance fitness was -0.486 ± 0.093.

With MVDYIVEYDYDAVHDCELTIRVGEIIRNVKKLQEEGWLEGELNGRRGMFPDNFVKEIKR [D16C], the abundance fitness was determined as 0.229 ± 0.18.

Take MVDYIVEYDYDAVHDDELTIRVGEIIRNVKKLQEEGWLEGELNGRRGMFPTNFVKEIKR [D51T]: the abundance fitness amounted to 0.018 ± 0.071.

As to MVDYIVEYDYDAVHDDELTIRVGEIIRNVKTLQEEGWLEGELNGRRGMFPDNFVKEIKR [K31T], the abundance fitness was 0.03 ± 0.12.

In the case of MVDYIVEYDYDAVHDDELTIRVGEIIRNVKSLQEEGWLEGELNGRRGMFPDNFVKEIKR [K31S], the abundance fitness is -0.13 ± 0.099.

On to MVDYIVEYDYDRVHDDELTIRVGEIIRNVKKLQEEGWLEGELNGRRGMFPDNFVKEIKR [A12R], for which the abundance fitness is -0.416 ± 0.07.

Take MVDYIVEYDYDAVHDDELTIRVGEIIRNVKKLDEEGWLEGELNGRRGMFPDNFVKEIKR [Q33D]: the abundance fitness came out at 0.065 ± 0.073.

As for MVDYGVEYDYDAVHDDELTIRVGEIIRNVKKLQEEGWLEGELNGRRGMFPDNFVKEIKR [I5G], the abundance fitness is -0.704 ± 0.16.

Take MVDYPVEYDYDAVHDDELTIRVGEIIRNVKKLQEEGWLEGELNGRRGMFPDNFVKEIKR [I5P]: the abundance fitness was -0.979 ± 0.41.

Turning to MVDYVVEYDYDAVHDDELTIRVGEIIRNVKKLQEEGWLEGELNGRRGMFPDNFVKEIKR [I5V], the abundance fitness is -0.097 ± 0.075.

With MVDYIVEYDYDAVHDDELTIRVGEIIRNVKKLQEAGWLEGELNGRRGMFPDNFVKEIKR [E35A], the abundance fitness was -0.067 ± 0.058.

As for MVDYIVEYDYDAVHDDELTICVGEIIRNVKKLQEEGWLEGELNGRRGMFPDNFVKEIKR [R21C], the abundance fitness was -0.284 ± 0.1.

Take MVDYIVEYDYDAVHDDELTINVGEIIRNVKKLQEEGWLEGELNGRRGMFPDNFVKEIKR [R21N]: the abundance fitness was -0.827 ± 0.37.

In the case of MVDYIVEYDYDAVHDDELTIRVGEIIRNVKKLQEEGWKEGELNGRRGMFPDNFVKEIKR [L38K], the abundance fitness was -0.264 ± 0.23.

Take MVDYIVEYDYDAVHDDELTIRVGEIIRNVKKLQEEGWREGELNGRRGMFPDNFVKEIKR [L38R]: the abundance fitness was -0.563 ± 0.13.

As for MVDYIVEYDYDAVHDDELTIRVGEIIRNVKKLQEEGWGEGELNGRRGMFPDNFVKEIKR [L38G], the abundance fitness is -0.996 ± 0.28.

Consider MVDYIVEYDYDAVHDDELTIRVGEIIRNVKKLQEEGWIEGELNGRRGMFPDNFVKEIKR [L38I], for which the abundance fitness is -0.433 ± 0.11.

With MVDMIVEYDYDAVHDDELTIRVGEIIRNVKKLQEEGWLEGELNGRRGMFPDNFVKEIKR [Y4M], the abundance fitness was -0.086 ± 0.13.

Take MVDAIVEYDYDAVHDDELTIRVGEIIRNVKKLQEEGWLEGELNGRRGMFPDNFVKEIKR [Y4A]: the abundance fitness was -0.254 ± 0.15.

On to MVDWIVEYDYDAVHDDELTIRVGEIIRNVKKLQEEGWLEGELNGRRGMFPDNFVKEIKR [Y4W], for which the abundance fitness is -0.166 ± 0.098.

For MVDLIVEYDYDAVHDDELTIRVGEIIRNVKKLQEEGWLEGELNGRRGMFPDNFVKEIKR [Y4L], the abundance fitness was -0.476 ± 0.11.

As to SVDYIVEYDYDAVHDDELTIRVGEIIRNVKKLQEEGWLEGELNGRRGMFPDNFVKEIKR [M1S], the abundance fitness is 0.072 ± 0.14.

For the variant MVDYIVEYDYDAVHDDELTIRVVEIIRNVKKLQEEGWLEGELNGRRGMFPDNFVKEIKR [G23V], the abundance fitness was -0.844 ± 0.21.
